The text below walks through data of patent US20250163164A1 (LANOVA MEDICINES DEVELOPMENT, published 2025).

Where a chain is given by its changes, count along the chain named.

In general, EC50 refers to the concentration giving half of the maximal effect. A lower EC50 goes with higher potency in that assay.

B1: 62A8D8 (antibody, V domains shown)
VH: EVKLVESGGGLVKPGGSLKLSCAASGFTFSSYGMSWVRQTPEKRLEWVATISGGGSYTYYPDSVKGRFTISRDNAKNNLYLQMSSLRSEDTALYYCARRDLRSAMDYWGQGTSVTVSS
VL: DIVMTQSQKFMSTSVGDRVSVTCKASQNVDINVAWYQQKPGQSPKALIYSASYRYSGVPDRFTGSGSGTDFTLTISNVQSEDLAEFFCQQYNNYPLTFGGGTKLEIK
notes: purified mouse antibody
B2: 42E3C4 (antibody, V domains shown)
VH: B1 VH with K13R, L20I, S31T
VL: B1 VL with Y53F, F86Y, N93S
notes: purified mouse antibody
B3: 54A4F7 (antibody, V domains shown)
VH: B1 VH with Y107H
VL: B1 VL with K24R, A46S, F86Y, N93S, K107R
notes: purified mouse antibody
B4: 73A11E2 (antibody, V domains shown)
VH: B1 VH with K76R, S84N
VL: B1 VL with N93S
notes: purified mouse antibody
B5: 74B5E4 (antibody, V domains shown)
VH: B1 VH with K19R, S31T
VL: B1 VL with F86Y, N93T
notes: purified mouse antibody
B6: 51G2B3 (antibody, V domains shown)
VH: QVQLQQSGPELVKPGASVKISCKASGYAFSDSWMNWVKQRPGQGLEWIGRIYPGDGDTNYNGKFKGKATLTADKSSNTAYMQLSSLTSVDSAVYFCARSWNGSPWFPYWGQGTLVTVSA
VL: DVLMTQTPLSLPVSLGDQASISCRSSQTIAHRNGNTYLEWYLQKPGQSPKLLLYKVSNRFSGVPDRFSGSGSGTDFTLKISRVEAEDLGVYYCFQGSHVTWTFGGGTKLEIK
notes: purified mouse antibody
B7: 57F8H3F1 (antibody, V domains shown)
VH: QVQLQQPGAELVRPGASVKLSCKASGYTFTNYWMNWIKQRPEQGLEWIGRIDPYETETHYNQKFRDRAILTVDKSSSTAFMQLSGLTSEDSAVYYCARGYGHYYGVDYWGQGTSVTVSS
VL: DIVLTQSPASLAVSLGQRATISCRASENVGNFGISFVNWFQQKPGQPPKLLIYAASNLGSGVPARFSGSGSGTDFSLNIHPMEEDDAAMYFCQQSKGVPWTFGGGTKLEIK
notes: purified mouse antibody
B8: 34A5G9 (antibody, V domains shown)
VH: EVHLQQSGPELVKPGASVKISCKTSGYTFTEYTMHWVKQSHGKSLEWIGRINPNNGIAEYKQTFKDKATLAVDKSSSTAYMEFRSLTSEDSAVYYCARGEGYGYWFAYWGQGTLVTVSA
VL: DIQMTQSPASLSASVGETVTITCRTSDNIYSYLAWYQQRQGKSPQLLVSNARTLAEGVPSRFSGSGSGTQFSLKINSLQPEDFGIYYCQHHSGTPFTFGSGTNLEIE
notes: purified mouse antibody
B9: 62F6A8 (antibody, V domains shown)
VH: QVQIQQSGAELARPGASVMLSCKASGYTFTDYWMQWIKQRPGQGLEGIGAIYPGDGDTAYNQKFRGKATLTADKSSSTAYMQLNSLASEDSAVYFCARGATLLRPFPFWGQGTLVTVSA
VL: DIVMTQSHKFMSTSVGDRVSITCKASQDVSTAVAWYQQKPGQSPKLLIYSASYRYAGVPDRFTGSGSGTDFTFTISSVQAEDLAVYSCQQHYSIPPTFGGGTKLEIK
notes: purified mouse antibody
B10: 61H8C1 (antibody, V domains shown)
VH: B9 VH with I4L, D31S, M34T, G56D, A59S, R65K, A87T, F95Y, F108Y
VL: B9 VL with A56T
notes: purified mouse antibody
B11: 72B4H4 (antibody, V domains shown)
VH: QVQLQQPGAERVRPGASVKLSCKASGYTFTNYWMNWVKQRPEQGLEWIGRIDPYAGETHYNQKFKDKAILTVDKSSSTAYMQLRSLTSEDSAVYYCARGYGDSYGMDHWGQGTSVTVSS
VL: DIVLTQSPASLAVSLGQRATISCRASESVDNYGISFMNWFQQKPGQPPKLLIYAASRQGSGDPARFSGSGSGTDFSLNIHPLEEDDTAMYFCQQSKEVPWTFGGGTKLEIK
notes: purified mouse antibody

The assay deals with T1, human interleukin 13 receptor subunit alpha 2 (IL-13RA2) (human, UniProt Q14627 27-380).
T1 construct: whole, on cells; also called IL-13Rα2; CD213A2
T1 sequence (looked up): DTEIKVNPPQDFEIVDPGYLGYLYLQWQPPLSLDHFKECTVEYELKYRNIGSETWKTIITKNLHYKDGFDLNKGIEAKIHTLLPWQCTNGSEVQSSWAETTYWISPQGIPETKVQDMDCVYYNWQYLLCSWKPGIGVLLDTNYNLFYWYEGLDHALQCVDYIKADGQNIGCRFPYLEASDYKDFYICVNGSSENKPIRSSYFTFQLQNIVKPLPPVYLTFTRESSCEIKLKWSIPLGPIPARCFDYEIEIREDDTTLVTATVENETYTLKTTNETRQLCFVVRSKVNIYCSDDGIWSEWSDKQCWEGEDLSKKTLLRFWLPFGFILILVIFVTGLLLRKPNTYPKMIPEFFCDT
Nature of the assay: FACS on A375 cells. Here is the method:
A375 cells that endogenously expressed IL-13RA2 were harvested from flasks. 100 μl of 1×10⁶ cells/ml of cells were incubated with primary antibodies in 4-fold serial dilutions starting from 100 nM to 0.006 nM for 30 minutes on ice. After being washed with 200 μl of FACS buffer twice, cells were incubated with secondary antibody for 30 minutes on ice. Cells were washed with 200 μl of FACS buffer twice and analyzed by FACS.
With B1, the EC50 came to 0.9 nM and the “Top (MFI)” value is 334000 MFI.
With B2, a half-maximal effect (EC50) was put at 0.52 nM and the “Top (MFI)” value was found to be 235000 MFI.
As for B3, the EC50 stood at 0.84 nM and the “Top (MFI)” value was found to be 268000 MFI.
The like results for B4 were, in that order, 0.71 nM and 223000 MFI.
B5: the concentration for a half-maximal effect (EC50) was 0.6 nM and the “Top (MFI)” value amounted to 268000 MFI.
Turning to B6, the concentration for a half-maximal effect (EC50) stood at 0.87 nM and the “Top (MFI)” value worked out at 243000 MFI.
Consider B7, for which it took 0.7 nM to reach a half-maximal effect (EC50) and the “Top (MFI)” value was determined as 246000 MFI.
Regarding B8, the EC50 was found to be 0.67 nM and the “Top (MFI)” value is 248000 MFI.
Turning to B9, a half-maximal effect (EC50) was put at 0.68 nM and the “Top (MFI)” value amounted to 217000 MFI.
As for B10, the EC50 is 0.41 nM and the “Top (MFI)” value was 203000 MFI.
The like results for B11 were, in that order, 0.76 nM and 262000 MFI.
